Measured values: US20030144205A1

Biological target: SV40 large T antigen (pGADT7-SV40 large T antigen) (SV40) (UniProt P03070)
Experiment: cell-based or functional assay

SV40 large T antigen (pGADT7-SV40 large T antigen) (SV40), sequence (P03070 86-708 limits assumed): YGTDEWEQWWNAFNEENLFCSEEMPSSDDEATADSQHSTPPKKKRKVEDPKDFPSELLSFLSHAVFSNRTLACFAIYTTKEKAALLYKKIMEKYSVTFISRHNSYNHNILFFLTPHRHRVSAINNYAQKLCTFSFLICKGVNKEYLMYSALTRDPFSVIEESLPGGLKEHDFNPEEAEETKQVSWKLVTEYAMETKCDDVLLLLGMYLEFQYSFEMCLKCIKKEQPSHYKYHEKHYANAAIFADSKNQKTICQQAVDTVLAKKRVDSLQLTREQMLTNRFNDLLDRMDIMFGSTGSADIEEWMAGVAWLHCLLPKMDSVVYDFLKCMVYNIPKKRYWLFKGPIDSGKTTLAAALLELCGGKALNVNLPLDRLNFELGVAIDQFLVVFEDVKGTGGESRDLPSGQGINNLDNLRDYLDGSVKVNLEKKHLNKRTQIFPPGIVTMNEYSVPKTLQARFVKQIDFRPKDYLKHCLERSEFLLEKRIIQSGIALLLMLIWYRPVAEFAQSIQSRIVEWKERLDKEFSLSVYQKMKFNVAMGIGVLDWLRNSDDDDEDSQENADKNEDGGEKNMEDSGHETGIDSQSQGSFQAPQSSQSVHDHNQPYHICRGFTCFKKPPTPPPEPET

murine p53 (pGBKT7-murine p53) (from UniProt P02340 72-390)
fold increase in fluorescence, an indication of yeast growth in selection media (Fluorescence(t40)/Fluorescence(t0)): > 5 fold
